B1: ZNF649 (parent)
chain: LVAHQRYHTGKTPFVCPECGQPCS

Variants of: B1
Test: protein stability index of a GFP-peptide fusion (GPS, HEK-293T) (PSI 1-6); higher = more stable
Settings: c terminus: a fixed tail appended
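Note: lentivirally expressed fusions sorted by FACS into six bins by GFP to DsRed ratio, PSI derived from sequencing read proportions per bin multiplied by bin number.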

In order of falling protein stability index:
1. LVAHQREHTGKTPFVCPECGQPCS [Y7E]  4.45
2. LVAHQCYHTGKTPFVCPECGQPCS [R6C]  4.33
3. LVAHQRDHTGKTPFVCPECGQPCS [Y7D]  4.17
4. LVAHQRQHTGKTPFVCPECGQPCS [Y7Q]  4.14
5. LVAHQHYHTGKTPFVCPECGQPCS [R6H]  4.1
6. LVAHQRPHTGKTPFVCPECGQPCS [Y7P]  4.04
7. LVAHQRYHTDKTPFVCPECGQPCS [G10D]  3.96
8. LVAHQSYHTGKTPFVCPECGQPCS [R6S]  3.96
9. LVAHQGYHTGKTPFVCPECGQPCS [R6G]  3.86
10. LVAHQRAHTGKTPFVCPECGQPCS [Y7A]  3.83
11. LVAHQRYHIGKTPFVCPECGQPCS [T9I]  3.77
12. LVAHQRYHDGKTPFVCPECGQPCS [T9D]  3.77
13. LVAHQRYVTGKTPFVCPECGQPCS [H8V]  3.77
14. LVAHQEYHTGKTPFVCPECGQPCS [R6E]  3.74
15. LVAHQRNHTGKTPFVCPECGQPCS [Y7N]  3.73
16. LVAHQRYHEGKTPFVCPECGQPCS [T9E]  3.7
17. LVAHQRGHTGKTPFVCPECGQPCS [Y7G]  3.68
18. LVAHQRMHTGKTPFVCPECGQPCS [Y7M]  3.67
19. LVAHQRYPTGKTPFVCPECGQPCS [H8P]  3.67
20. LVAHQPYHTGKTPFVCPECGQPCS [R6P]  3.65
21. LVAHQRYHTLKTPFVCPECGQPCS [G10L]  3.64
22. LVAHQRYHFGKTPFVCPECGQPCS [T9F]  3.62
23. LVAHQQYHTGKTPFVCPECGQPCS [R6Q]  3.6
24. LVAHQRYQTGKTPFVCPECGQPCS [H8Q]  3.59
25. LVAHQDYHTGKTPFVCPECGQPCS [R6D]  3.58
26. LVAHQRYHTEKTPFVCPECGQPCS [G10E]  3.57
27. LVAHQRHHTGKTPFVCPECGQPCS [Y7H]  3.56
28. LVAHQRYDTGKTPFVCPECGQPCS [H8D]  3.54
29. LVAHQRYHGGKTPFVCPECGQPCS [T9G]  3.53
30. LVAHQRYHTIKTPFVCPECGQPCS [G10I]  3.5
31. LVAHQTYHTGKTPFVCPECGQPCS [R6T]  3.48
32. LVAHQAYHTGKTPFVCPECGQPCS [R6A]  3.46
33. LVAHQRVHTGKTPFVCPECGQPCS [Y7V]  3.44
34. LVAHQRYHTFKTPFVCPECGQPCS [G10F]  3.44
35. LVAHQRYHTCKTPFVCPECGQPCS [G10C]  3.44
36. LVAHQRYHTMKTPFVCPECGQPCS [G10M]  3.44
37. LVAHQKYHTGKTPFVCPECGQPCS [R6K]  3.44
38. LVAHQRYHTNKTPFVCPECGQPCS [G10N]  3.37
39. LVAHQNYHTGKTPFVCPECGQPCS [R6N]  3.37
40. LVAHQRYHYGKTPFVCPECGQPCS [T9Y]  3.31
41. LVAHQRYHQGKTPFVCPECGQPCS [T9Q]  3.31
42. LVAHQRKHTGKTPFVCPECGQPCS [Y7K]  3.31
43. LVAHQRTHTGKTPFVCPECGQPCS [Y7T]  3.28
44. LVAHQRYHTQKTPFVCPECGQPCS [G10Q]  3.28
45. LVAHQRYTTGKTPFVCPECGQPCS [H8T]  3.26
46. LVAHQRYHTHKTPFVCPECGQPCS [G10H]  3.24
47. LVAHQRIHTGKTPFVCPECGQPCS [Y7I]  3.21
48. LVAHQRYITGKTPFVCPECGQPCS [H8I]  3.21
49. LVAHQRFHTGKTPFVCPECGQPCS [Y7F]  3.2
50. LVAHQMYHTGKTPFVCPECGQPCS [R6M]  3.19
51. LVAHQRSHTGKTPFVCPECGQPCS [Y7S]  3.18
52. LVAHQRYNTGKTPFVCPECGQPCS [H8N]  3.18
53. LVAHQRYHMGKTPFVCPECGQPCS [T9M]  3.16
54. LVAHQRYHTAKTPFVCPECGQPCS [G10A]  3.15
55. LVAHQRYETGKTPFVCPECGQPCS [H8E]  3.13
56. LVAHQIYHTGKTPFVCPECGQPCS [R6I]  3.12
57. LVAHQYYHTGKTPFVCPECGQPCS [R6Y]  3.12
58. LVAHQRYHSGKTPFVCPECGQPCS [T9S]  3.1
59. LVAHQRYATGKTPFVCPECGQPCS [H8A]  3.1
60. LVAHQWYHTGKTPFVCPECGQPCS [R6W]  3.1
61. LVAHQRYHTPKTPFVCPECGQPCS [G10P]  3.09
62. LVAHTRYHTGKTPFVCPECGQPCS [Q5T]  3.07
63. LVAHQRYHVGKTPFVCPECGQPCS [T9V]  3.06
64. LVAHQRYHNGKTPFVCPECGQPCS [T9N]  3.05
65. LVAHQRYCTGKTPFVCPECGQPCS [H8C]  3.05
66. LVAHQVYHTGKTPFVCPECGQPCS [R6V]  2.98
67. LVAHQRLHTGKTPFVCPECGQPCS [Y7L]  2.93
68. LVAHQRYSTGKTPFVCPECGQPCS [H8S]  2.93
69. LVAHQRYLTGKTPFVCPECGQPCS [H8L]  2.93
70. LVAHQLYHTGKTPFVCPECGQPCS [R6L]  2.93
71. LVAHQRYHLGKTPFVCPECGQPCS [T9L]  2.92
72. LVAHQRYHWGKTPFVCPECGQPCS [T9W]  2.9
73. LVAHQRYHPGKTPFVCPECGQPCS [T9P]  2.88
74. LVAHQRYHTKKTPFVCPECGQPCS [G10K]  2.83
75. LVAHQRYHTRKTPFVCPECGQPCS [G10R]  2.78
76. LVAHQRYHAGKTPFVCPECGQPCS [T9A]  2.77
77. LVAHQRYHRGKTPFVCPECGQPCS [T9R]  2.76
78. LVAHQRRHTGKTPFVCPECGQPCS [Y7R]  2.75
79. LVAHQRYMTGKTPFVCPECGQPCS [H8M]  2.75
80. LVAHYRYHTGKTPFVCPECGQPCS [Q5Y]  2.74
81. LVAHQRYYTGKTPFVCPECGQPCS [H8Y]  2.69
82. LVAHQFYHTGKTPFVCPECGQPCS [R6F]  2.69
83. LVAHQRYHCGKTPFVCPECGQPCS [T9C]  2.65
84. LVAHQRYHHGKTPFVCPECGQPCS [T9H]  2.6
85. LVAHQRCHTGKTPFVCPECGQPCS [Y7C]  2.59
86. LVAHQRYWTGKTPFVCPECGQPCS [H8W]  2.57
87. LVAHQRYKTGKTPFVCPECGQPCS [H8K]  2.57
88. LVAHQRYRTGKTPFVCPECGQPCS [H8R]  2.53
89. LVAHQRYHKGKTPFVCPECGQPCS [T9K]  2.52
90. LVAHQRYGTGKTPFVCPECGQPCS [H8G]  2.52
91. LVAHQRYFTGKTPFVCPECGQPCS [H8F]  2.49
92. LVAHQRWHTGKTPFVCPECGQPCS [Y7W]  2.38
93. LVAHVRYHTGKTPFVCPECGQPCS [Q5V]  1.89
94. LVAHWRYHTGKTPFVCPECGQPCS [Q5W]  1.16
